Measured values: patent US20190127438

How the values were obtained:
[1] = target: T1, protease resistant A43-FceRIa (K43 to A43 variant of recombinant human FceRIa)
T1 chain 1: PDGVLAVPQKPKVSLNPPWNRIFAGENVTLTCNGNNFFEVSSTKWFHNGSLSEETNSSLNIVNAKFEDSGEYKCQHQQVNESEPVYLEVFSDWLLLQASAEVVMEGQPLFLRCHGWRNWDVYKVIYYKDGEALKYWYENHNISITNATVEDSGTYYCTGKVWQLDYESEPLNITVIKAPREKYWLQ
T1 chain 2: HHHHHH

[2] = target: T2, recombinant wild type FceRIa (extracellular region of the alpha chain of the human high-affinity IgE receptor, spacer, 6His)
T2 chain: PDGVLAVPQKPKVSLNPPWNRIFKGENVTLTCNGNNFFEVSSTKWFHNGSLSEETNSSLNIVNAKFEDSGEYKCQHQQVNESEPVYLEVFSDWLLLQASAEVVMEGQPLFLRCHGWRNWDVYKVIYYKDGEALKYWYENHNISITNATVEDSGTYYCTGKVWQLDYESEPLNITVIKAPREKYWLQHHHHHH

B1: plasmin (Sigma P1867) (protein)
chain: KVYLSECKTGNGKNYRGTMSKTKNGITCQKWSSTSPHRPRFSPATHPSEGLEENYCRNPDNDPQGPWCYTTDPEKRYDYCDILECEEECMHCSGENYDGKISKTMSGLECQAWDSQSPHAHGYIPSKFPNKNLKKNYCRNPDRELRPWCFTTDPNKRWELCDIPRCTTPPPSSGPTYQCLKGTGENYRGNVAVTVSGHTCQHWSAQTPHTHNRTPENFPCKNLDENYCRNPDGKRAPWCHTTNSQVRWEYCKIPSCDSSPVSTEQLAPTAPPELTPVVQDCYHGDGQSYRGTSSTTTTGKKCQSWSSMTPHRHQKTPENYPNAGLTMNYCRNPDADKGPWCFTTDPSVRWEYCNLKKCSGTEASVVAPPPVVLLPDVETPSEEDCMFGNGKGYRGKRATTVTGTPCQDWAAQEPHRHSIFTPETNPRAGLEKNYCRNPDGDVGGPWCYTTNPRKLYDYCDVPQCAAPSFDCGKPQVEPKKCPGRVVGGCVAHPHSWPWQVSLRTRFGMHFCGGTLISPEWVLTAAHCLEKSPRPSSYKVILGAHQEVNLEPHVQEIEVSRLFLEPTRKDIALLKLSSPAVITDKVIPACLPSPNYVVADRTECFITGWGETQGTFGAGLLKEAQLPVIENKVCNRYEFLNGRVQSTELCAGHLAGGTDSCQGDSGGPLVCFEKDKYILQGVTSWGLGCARPNKPGVYVRVSRFVTWIEGVMRNN
- plasmin cleavage, Base Peak Chromatogram (LC-MS) [1]: complete absence of a cleavage product in the mutant, protease resistant variant of recombinant A43-FceRIa (black line), whereas the wild type receptor digest peak appears at 30 min (grey line)
- plasmin cleavage, peptides in the Base Peak Chromatogram (LC-MS) [2]: Site K43 (indicated as peptide K in FIG. 2B) of recombinant wt FceRIa was preferentially cleaved whereas plasmin cleavage sites K31, R40, K201, R199, K196 and K142 (indicated as peptide 1-8 in FIG. 2B) were cleaved to lesser extent
